Data taken from publication PMC9482650, “Quantitative fragmentomics allow affinity mapping of interactomes” (Nature Communications, 2022).

Assays:
Test in all cases: holdup assay
Set-up in all cases: key: below the threshold = too weak to quantify, mostly under pKd 3.1 to 4
[1] = biological target: CASK, O14936
[2] = biological target: T1, SNTA1, Q13424
T1 sequence (Q13424 82-180, limits assumed, looked up): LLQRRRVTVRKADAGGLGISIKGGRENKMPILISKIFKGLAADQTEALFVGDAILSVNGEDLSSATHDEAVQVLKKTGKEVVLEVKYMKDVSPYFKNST

[3] = biological target: MAGI2_6, Q86UL8
[4] = biological target: PDLIM1, O00151
[5] = biological target: GRID2IP_1, A4D2P6
[6] = biological target: GORASP2, Q9H8Y8
[7] = biological target: DLG1_1, Q12959
[8] = biological target: T2, APBA1_2, Q02410
T2 sequence (Q02410 742-832, limits assumed, looked up): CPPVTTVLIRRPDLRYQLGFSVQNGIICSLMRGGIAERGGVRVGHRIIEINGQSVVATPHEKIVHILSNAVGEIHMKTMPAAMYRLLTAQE

[9] = biological target: FRMPD4, Q14CM0
[10] = biological target: MAGI3_2, Q5TCQ9
[11] = biological target: DLG4_1, P78352
[12] = biological target: MAGI2_4, Q86UL8
[13] = biological target: ARHGEF12, Q9NZN5-2
[14] = biological target: T3, NHERF3_3, Q5T2W1
T3 sequence (Q5T2W1 238-333, limits assumed, looked up): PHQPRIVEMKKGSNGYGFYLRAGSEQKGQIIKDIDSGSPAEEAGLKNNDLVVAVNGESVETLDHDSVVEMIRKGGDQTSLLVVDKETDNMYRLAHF

[15] = biological target: DLG2_2, Q15700
[16] = biological target: IL16_4, Q14005
[17] = biological target: GRIP2_3, Q9C0E4
[18] = biological target: T4, GRIP1_4, Q9Y3R0
T4 sequence (Q9Y3R0 467-571, limits assumed, looked up): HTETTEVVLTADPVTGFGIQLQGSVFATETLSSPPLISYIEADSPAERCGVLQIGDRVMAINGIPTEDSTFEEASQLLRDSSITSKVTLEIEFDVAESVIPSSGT

[19] = biological target: T5, MPP6, Q9NZW5
T5 sequence (Q9NZW5 125-219, limits assumed, looked up): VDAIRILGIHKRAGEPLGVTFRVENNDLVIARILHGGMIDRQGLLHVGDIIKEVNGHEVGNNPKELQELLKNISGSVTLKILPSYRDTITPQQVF

[20] = biological target: Inadl_2, Q8NI35
[21] = biological target: LIMK2, P53671
[22] = biological target: NHERF2_2, Q15599
[23] = biological target: T6, ARHGAP21, Q5T5U3
T6 sequence (Q5T5U3 45-169, limits assumed, looked up): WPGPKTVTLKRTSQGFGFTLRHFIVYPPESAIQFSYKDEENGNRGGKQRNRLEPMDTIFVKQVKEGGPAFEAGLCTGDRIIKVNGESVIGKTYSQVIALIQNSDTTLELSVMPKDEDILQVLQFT

[24] = biological target: T7, MPP2, Q14168
T7 sequence (Q14168 180-250, limits assumed, looked up): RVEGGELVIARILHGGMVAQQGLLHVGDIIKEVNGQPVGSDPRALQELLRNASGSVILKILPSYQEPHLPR

[25] = biological target: TJP2_1, Q9UDY2
[26] = biological target: T8, APBA2_2, Q99767
T8 sequence (Q99767 654-744, limits assumed, looked up): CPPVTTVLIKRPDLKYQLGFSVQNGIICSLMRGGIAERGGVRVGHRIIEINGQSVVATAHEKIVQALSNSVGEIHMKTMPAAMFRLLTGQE

[27] = biological target: FRMPD2_1, Q68DX3
[28] = biological target: T9, PCLO, Q9Y6V0
T9 sequence (Q9Y6V0 4491-4600, limits assumed, looked up): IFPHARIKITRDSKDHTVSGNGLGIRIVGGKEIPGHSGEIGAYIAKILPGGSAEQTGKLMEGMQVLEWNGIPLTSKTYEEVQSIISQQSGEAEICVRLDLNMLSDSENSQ

[29] = plain residues with an end cap or a label only (N-terminal biotin on a linker: ado-ado)
[30] = modified: phospho on T at position -2 from the C-terminal residue
[31] = modified: phospho on T at position -1 from the C-terminal residue

Chain of DLG2_2, Q15700 (Q15700 189-283): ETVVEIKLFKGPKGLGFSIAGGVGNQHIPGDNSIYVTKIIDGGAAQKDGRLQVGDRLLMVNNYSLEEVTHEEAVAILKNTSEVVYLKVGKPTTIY
Chain of MAGI2_4, Q86UL8 (Q86UL8 772-865): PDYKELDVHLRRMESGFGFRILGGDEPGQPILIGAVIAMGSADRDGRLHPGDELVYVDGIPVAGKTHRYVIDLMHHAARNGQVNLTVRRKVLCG
Chain of GRIP2_3, Q9C0E4 (Q9C0E4 238-339): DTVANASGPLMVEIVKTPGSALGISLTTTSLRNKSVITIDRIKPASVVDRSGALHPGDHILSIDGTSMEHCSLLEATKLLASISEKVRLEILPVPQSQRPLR
Chain of FRMPD4, Q14CM0 (Q14CM0 67-160): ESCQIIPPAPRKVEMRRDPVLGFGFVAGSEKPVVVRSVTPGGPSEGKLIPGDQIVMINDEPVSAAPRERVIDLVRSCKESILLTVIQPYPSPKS
Chain of GRID2IP_1, A4D2P6 (A4D2P6 1-87): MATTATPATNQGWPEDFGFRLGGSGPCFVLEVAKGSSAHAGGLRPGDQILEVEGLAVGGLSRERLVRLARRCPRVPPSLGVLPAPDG
Chain of CASK, O14936 (O14936 487-570): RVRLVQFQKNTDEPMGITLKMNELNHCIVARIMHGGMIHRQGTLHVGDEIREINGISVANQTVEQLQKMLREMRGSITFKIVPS
Chain of DLG4_1, P78352 (P78352 62-152): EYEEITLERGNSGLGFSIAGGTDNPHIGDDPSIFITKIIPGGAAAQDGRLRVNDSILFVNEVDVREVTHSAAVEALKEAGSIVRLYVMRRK
Chain of ARHGEF12, Q9NZN5-2 (Q9NZN5 other isoform, or with tags, fused parts or gaps): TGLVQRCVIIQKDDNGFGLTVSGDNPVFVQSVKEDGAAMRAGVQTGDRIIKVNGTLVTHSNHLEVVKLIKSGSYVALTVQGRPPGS
Chain of MAGI3_2, Q5TCQ9 (Q5TCQ9 398-503): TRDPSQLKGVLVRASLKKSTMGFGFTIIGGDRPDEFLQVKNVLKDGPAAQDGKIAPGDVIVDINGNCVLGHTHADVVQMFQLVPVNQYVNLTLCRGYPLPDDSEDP
Chain of MAGI2_6, Q86UL8 (Q86UL8 1141-1229): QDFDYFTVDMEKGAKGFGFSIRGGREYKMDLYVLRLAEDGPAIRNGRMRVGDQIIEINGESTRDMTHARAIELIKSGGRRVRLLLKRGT
Chain of Inadl_2, Q8NI35 (Q8NI35 238-335): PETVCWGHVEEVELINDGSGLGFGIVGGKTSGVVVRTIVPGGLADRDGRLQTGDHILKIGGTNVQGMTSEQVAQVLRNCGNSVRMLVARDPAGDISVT
Chain of TJP2_1, Q9UDY2 (Q9UDY2 24-128): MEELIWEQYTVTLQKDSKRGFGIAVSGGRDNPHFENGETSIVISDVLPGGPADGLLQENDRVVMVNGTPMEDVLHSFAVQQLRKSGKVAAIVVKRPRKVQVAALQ
Chain of IL16_4, Q14005 (Q14005 1229-1329): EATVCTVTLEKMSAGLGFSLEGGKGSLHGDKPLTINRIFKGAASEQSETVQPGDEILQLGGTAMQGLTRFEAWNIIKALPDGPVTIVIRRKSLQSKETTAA
Chain of LIMK2, P53671 (P53671 143-248): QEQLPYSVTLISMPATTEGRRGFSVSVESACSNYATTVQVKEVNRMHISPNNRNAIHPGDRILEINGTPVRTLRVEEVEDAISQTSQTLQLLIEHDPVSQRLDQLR
Chain of FRMPD2_1, Q68DX3 (Q68DX3 770-861): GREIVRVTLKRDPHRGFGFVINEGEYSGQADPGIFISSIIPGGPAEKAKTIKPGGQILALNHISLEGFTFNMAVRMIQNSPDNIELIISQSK
Chain of NHERF2_2, Q15599 (Q15599 142-238): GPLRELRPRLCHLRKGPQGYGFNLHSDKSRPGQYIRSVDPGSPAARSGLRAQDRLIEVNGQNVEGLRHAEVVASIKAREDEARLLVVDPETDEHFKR
Chain of PDLIM1, O00151 (O00151 1-87): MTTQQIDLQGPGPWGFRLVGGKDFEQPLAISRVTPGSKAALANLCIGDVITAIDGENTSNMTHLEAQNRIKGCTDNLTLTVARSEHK

With LEPAVRSSEL [SH2D3C, Q8N5H7] the pKd [1, 29] was “below the threshold”, the pKd [2, 29] was 3.95 and the pKd [3, 29] was 3.96. For the same binder, the pKd [4, 29] was 3.5, the pKd [5, 29] was “below the threshold” and the pKd [6, 29] was “below the threshold”. For the same binder, the pKd [7, 29] was “below the threshold”, the pKd [8, 29] was “below the threshold” and the pKd [9, 29] was “below the threshold”. For the same binder, the pKd [10, 29] was “below the threshold”, the pKd [11, 29] was “below the threshold” and the pKd [12, 29] was “below the threshold”. The pKd [13, 29] was 4.91, the pKd [14, 29] was “below the threshold” and the pKd [15, 29] was “below the threshold”. The pKd [16, 29] was “below the threshold”, the pKd [17, 29] was “below the threshold” and the pKd [18, 29] was “below the threshold”. For the same binder, the pKd [19, 29] was “below the threshold”, the pKd [20, 29] was “below the threshold” and the pKd [21, 29] was “below the threshold”. The pKd [22, 29] was 4.29, the pKd [23, 29] was 3.72 and the pKd [24, 29] was “below the threshold”. The pKd [25, 29] was “below the threshold”, the pKd [26, 29] was “below the threshold” and the pKd [27, 29] was “below the threshold”. The pKd [28, 29] was “below the threshold”.

In the case of GQSVDLVFPV [AKIP1, Q9NQ31], the pKd [1, 29] is reported as “below the threshold”, the pKd [2, 29] is reported as “below the threshold” and the pKd [3, 29] is reported as “below the threshold”. The pKd [4, 29] was “below the threshold”, the pKd [5, 29] was “below the threshold” and the pKd [6, 29] was 4.37. The pKd [7, 29] was “below the threshold”, the pKd [8, 29] was 3.85 and the pKd [9, 29] was 3.93. For the same binder, the pKd [10, 29] was “below the threshold”, the pKd [11, 29] was 3.6 and the pKd [12, 29] was “below the threshold”. For the same binder, the pKd [13, 29] was “below the threshold”, the pKd [14, 29] was “below the threshold” and the pKd [15, 29] was “below the threshold”. The pKd [16, 29] was “below the threshold”, the pKd [17, 29] was “below the threshold” and the pKd [18, 29] was “below the threshold”. The pKd [19, 29] was “below the threshold”, the pKd [20, 29] was 3.51 and the pKd [21, 29] was “below the threshold”. For the same binder, the pKd [22, 29] was “below the threshold”, the pKd [23, 29] was 4.16 and the pKd [24, 29] was “below the threshold”. For the same binder, the pKd [25, 29] was “below the threshold”, the pKd [26, 29] was “below the threshold” and the pKd [27, 29] was “below the threshold”. The pKd [28, 29] was “below the threshold”.

In the case of RRVRKLPSTTL [RPS6KA1_-2P, Q15418], the pKd [1, 30] is reported as “below the threshold”, the pKd [2, 30] is reported as “below the threshold” and the pKd [3, 30] is reported as “below the threshold”. For the same binder, the pKd [4, 30] was “below the threshold”, the pKd [5, 30] was “below the threshold” and the pKd [6, 30] was 3.71. The pKd [7, 30] was 3.58, the pKd [8, 30] was “below the threshold” and the pKd [9, 30] was 3.48. The pKd [10, 30] was “below the threshold”, the pKd [11, 30] was “below the threshold” and the pKd [12, 30] was “below the threshold”. The pKd [13, 30] was “below the threshold”, the pKd [14, 30] was “below the threshold” and the pKd [15, 30] was “below the threshold”. For the same binder, the pKd [16, 30] was “below the threshold”, the pKd [17, 30] was “below the threshold” and the pKd [18, 30] was “below the threshold”. The pKd [19, 30] was “below the threshold”, the pKd [20, 30] was “below the threshold” and the pKd [21, 30] was “below the threshold”. The pKd [22, 30] was “below the threshold”, the pKd [23, 30] was “below the threshold” and the pKd [24, 30] was “below the threshold”. For the same binder, the pKd [25, 30] was “below the threshold”, the pKd [26, 30] was “below the threshold” and the pKd [27, 30] was “below the threshold”. The pKd [28, 30] was “below the threshold”.

For RRVRKLPSTTL [RPS6KA1_-1P, Q15418], the pKd [1, 31] was “below the threshold”, the pKd [2, 31] was 3.85 and the pKd [3, 31] was 3.83. The pKd [4, 31] was 4, the pKd [5, 31] was “below the threshold” and the pKd [6, 31] was 3.76. For the same binder, the pKd [7, 31] was 3.82, the pKd [8, 31] was “below the threshold” and the pKd [9, 31] was 3.62. For the same binder, the pKd [10, 31] was 3.94, the pKd [11, 31] was 3.8 and the pKd [12, 31] was 4.32. For the same binder, the pKd [13, 31] was 4.87, the pKd [14, 31] was 3.36 and the pKd [15, 31] was 3.83. The pKd [16, 31] was “below the threshold”, the pKd [17, 31] was “below the threshold” and the pKd [18, 31] was 3.36. The pKd [19, 31] was “below the threshold”, the pKd [20, 31] was 3.45 and the pKd [21, 31] was “below the threshold”. For the same binder, the pKd [22, 31] was 4.02, the pKd [23, 31] was “below the threshold” and the pKd [24, 31] was “below the threshold”. For the same binder, the pKd [25, 31] was “below the threshold”, the pKd [26, 31] was “below the threshold” and the pKd [27, 31] was 3.33. For the same binder, the pKd [28, 31] was “below the threshold”.
